In patent publication US20240018502A1:
Substitutions are numbered along the chain they refer to. Numbers in names are those of the source.

B1: MTSP-1 protease domain I41G/F97A/F99L/C122S/G151H/Q175L/Q192G/D217L (enzyme)
chain: VVGGTDADEGEWPWQVSLHALGQGHGCGASLISPNWLVSAAHCYIDDRGFRYSDPTQWTAFLGLHDQSQRSAPGVQERRLKRIISHPFFNDATLDYDIALLELEKPAEYSSMVRPISLPDASHVFPAGKAIWVTGWGHTQYGGTHALILQKGEIRVINQTTCENLLPQLITPRMMCVGFLSGGVDSCGGDSGGPLSSVEADGRIFQAGVVSWGLGCAQRNKPGVYTRLPLFRDWIKENTGV
B2: MTSP-1 protease domain I41G/F97S/F99L/C122S/G151T/Q175R/Q192A/D217Y (enzyme)
chain: B1 chain with A92S, H145T, L169R, G188A, L214Y
B3: MTSP-1 protease domain I41G/F97L/F99L/C122S/G151T/Q175M/Q192D/D217M (enzyme)
chain: B1 chain with A92L, H145T, L169M, G188D, L214M
B4: MTSP-1 protease domain I41R/F97A/F99L/C122S/G151N/Q175R/Q192G/D217Q (enzyme)
chain: B1 chain with G26R, H145N, L169R, L214Q
B5: MTSP-1 protease domain I41G/F97T/F99M/C122S/G151D/Q175T/Q192T/D217V (enzyme)
chain: B1 chain with A92T, L94M, H145D, L169T, G188T, L214V
B6: MTSP-1 protease domain I41G/F97L/F99L/C122S/G151N/Q175A/Q192V/D217R (enzyme)
chain: B1 chain with A92L, H145N, L169A, G188V, L214R
B7: MTSP-1 protease domain I41G/F97S/F99L/C122S/G151N/Q175I/Q192T/D217T (enzyme)
chain: B1 chain with A92S, H145N, L169I, G188T, L214T
B8: MTSP-1 protease domain Q38H/I41S/D60bT/F60eK/Y60gF/D96M/F97N/T98G/F99L/C122S/G151N/Q175L/Q192D (enzyme)
chain: VVGGTDADEGEWPWQVSLHALGHGHSCGASLISPNWLVSAAHCYIDTRGKRFSDPTQWTAFLGLHDQSQRSAPGVQERRLKRIISHPFFNMNGLDYDIALLELEKPAEYSSMVRPISLPDASHVFPAGKAIWVTGWGHTQYGGTNALILQKGEIRVINQTTCENLLPQLITPRMMCVGFLSGGVDSCDGDSGGPLSSVEADGRIFQAGVVSWGDGCAQRNKPGVYTRLPLFRDWIKENTGV
B9: MTSP-1 protease domain Q38Y/I41S/D60bT/F60eR/D96M/F97N/T98G/F99L/C122S/G151N/Q175L/Q192D (enzyme)
chain: B8 chain with H23Y, K50R, F52Y
B10: MTSP-1 protease domain Q38E/I41S/D60bV/F60eK/Y60gW/D96M/F97N/T98G/F99L/C122S/G151N/Q175L/Q192D (enzyme)
chain: B8 chain with H23E, T47V, F52W
B11: MTSP-1 protease domain Q38H/I41S/D60bT/F60eK/D96V/F97N/T98G/F99L/C122S/G151N/Q175L/Q192D (enzyme)
chain: B8 chain with F52Y, M91V
B12: MTSP-1 protease domain Q38Y/I41S/D60bT/F60eR/Y60gW/D96M/F97N/F99L/C122S/G151N/Q175L/Q192D (enzyme)
chain: B8 chain with H23Y, K50R, F52W, G93T
B13: MTSP-1 protease domain Q38Y/I41S/D60bT/Y60gW/D96M/F97N/T98G/F99L/C122S/G151N/Q175L/Q192D (enzyme)
chain: B8 chain with H23Y, K50F, F52W
B14: MTSP-1 protease domain I41S/F97E/F99L/C122S/G151N/Q175G/Q192R/D217A (enzyme)
chain: B1 chain with G26S, A92E, H145N, L169G, G188R, L214A
B15: MTSP-1 protease domain Q38Y/I41S/D60bT/F60eR/Y60gW/D96M/F97N/T98G/F99L/C122S/G151N/Q175L (enzyme)
chain: B8 chain with H23Y, K50R, F52W, D188Q
B16: MTSP-1 Q38H/I41A/D60bV/F60eR/Y60gW/D96I/F97N/T98G/F99L/C122S/G151N/Q175L/Q192D (enzyme)
chain: B8 chain with S26A, T47V, K50R, F52W, M91I
B17: MTSP-1 protease domain Q38Y/I41S/D60bT/F60eR/Y60gW/D96M/F97N/T98G/F99L/C122S/G151N/Q192D (enzyme)
chain: B8 chain with H23Y, K50R, F52W, L169Q
B18: MTSP-1 protease domain Q38Y/I41S/D60bT/F60eR/Y60gW/F97N/T98G/F99L/C122S/G151N/Q175L/Q192D (enzyme)
chain: B8 chain with H23Y, K50R, F52W, M91D
B19: MTSP-1 protease domain Q38Y/I41S/F60eR/Y60gW/D96M/F97N/T98G/F99L/C122S/G151N/Q175L/Q192D (enzyme)
chain: B8 chain with H23Y, T47D, K50R, F52W
B20: MTSP-1 protease domain Q38Y/D60bT/F60eR/Y60gW/D96M/F97N/T98G/F99L/C122S/G151N/Q175L/Q192D (enzyme)
chain: B8 chain with H23Y, S26I, K50R, F52W
B21: MTSP-1 protease domain Q38Y/I41S/D60bT/F60eR/Y60gW/D96M/F97N/T98G/F99L/C122S/G151N/Q175L/Q192D (enzyme)
chain: B8 chain with H23Y, K50R, F52W
B22: MTSP-1 protease domain Q38Y/I41S/D60bV/F60eR/Y60gF/D96M/F97N/T98G/F99L/C122S/G151N/Q175L/Q192D (enzyme)
chain: B8 chain with H23Y, T47V, K50R
B23: MTSP-1 protease domain Q38H/I41S/F60eT/Y60gW/D96M/F97N/T98G/F99L/C122S/G151N/Q175L/Q192D (enzyme)
chain: B8 chain with T47D, K50T, F52W
B24: MTSP-1 protease domain Q38Y/I41S/D60bT/F60eR/Y60gW/D96M/F97N/T98G/C122S/G151N/Q175L/Q192D (enzyme)
chain: B8 chain with H23Y, K50R, F52W, L94F
B25: MTSP-1 protease domain I41S/D60bT/F60eR/Y60gW/D96M/F97N/T98G/F99L/C122S/G151N/Q175L/Q192D (enzyme)
chain: B8 chain with H23Q, K50R, F52W
B26: MTSP-1 protease domain Q38Y/I41S/D60bT/F60eR/Y60gW/D96M/T98G/F99L/C122S/G151N/Q175L/Q192D (enzyme)
chain: B8 chain with H23Y, K50R, F52W, N92F
B27: MTSP-1 protease domain Q38H/I41A/D60bV/F60eR/Y60gW/D96F/F97Y/ins97aE/T98G/F99M/C122S/G151N/Q175L/Q192R (enzyme)
chain: VVGGTDADEGEWPWQVSLHALGHGHACGASLISPNWLVSAAHCYIDVRGRRWSDPTQWTAFLGLHDQSQRSAPGVQERRLKRIISHPFFNFYEGMDYDIALLELEKPAEYSSMVRPISLPDASHVFPAGKAIWVTGWGHTQYGGTNALILQKGEIRVINQTTCENLLPQLITPRMMCVGFLSGGVDSCRGDSGGPLSSVEADGRIFQAGVVSWGDGCAQRNKPGVYTRLPLFRDWIKENTGV
B28: MTSP-1 Q38H/I41S/D60bT/F60eS/Y60gW/D96V/F97G/ins97aV/T98P/F99L/C122S/G151H/Q175L/Q192D (enzyme)
chain: B27 chain with A26S, V47T, R50S, F91V, Y92G, E93V, G94P, M95L, N146H, R189D
B29: MTSP-1 protease domain Q38H/I41A/D60bV/F60eR/Y60gW/D96F/F97Y/ins97aN/T98G/F99M/C122S/G151N/Q175L/Q192G (enzyme)
chain: B27 chain with E93N, R189G
B30: MTSP-1 protease domain Q38H/I41S/D60bT/F60eS/Y60gW/D96F/F97Y/ins97aD/T98G/F99L/C122S/G151H/Q175L/Q192D (enzyme)
chain: B27 chain with A26S, V47T, R50S, E93D, M95L, N146H, R189D
B31: MTSP-1 protease domain Q38H/I41A/D60bV/F60eR/Y60gW/D96W/F97D/ins97aT/T98G/F99L/C122S/G151N/Q175L/Q192G (enzyme)
chain: B27 chain with F91W, Y92D, E93T, M95L, R189G
B32: MTSP-1 protease domain Q38H/I41A/D60bV/F60eR/Y60gW/D96F/F97S/ins97aH/T98G/F99L/C122S/G151N/Q175L/Q192G (enzyme)
chain: B27 chain with Y92S, E93H, M95L, R189G
B33: MTSP-1 Q38H/I41S/D60bT/F60eS/Y60gW/D96K/ins97aV/F97G/T98P/F99L/C122S/G151H/Q175L/Q192D (enzyme)
chain: B27 chain with A26S, V47T, R50S, F91K, Y92G, E93V, G94P, M95L, N146H, R189D
B34: MTSP-1 protease domain Q38H/I41S/D60bT/F60eS/Y60gW/D96Y/F97N/ins97aE/T98S/F99L/C122S/G151H/Q175L/Q192D (enzyme)
chain: B27 chain with A26S, V47T, R50S, F91Y, Y92N, G94S, M95L, N146H, R189D
B35: MTSP-1 protease domain Q38H/I41S/D60bT/F60eS/Y60gW/D96K/F97G/ins97aA/T98P/F99L/C122S/G151H/Q175L/Q192D (enzyme)
chain: B27 chain with A26S, V47T, R50S, F91K, Y92G, E93A, G94P, M95L, N146H, R189D
B36: MTSP-1 protease domain Q38H/I41A/D60bT/F60eK/Y60gF/F97T/ins97aE/T98G/F99L/C122S/H143R/G151N/Q175L/Q192V (enzyme)
chain: B27 chain with V47T, R50K, W52F, F91D, Y92T, M95L, H139R, R189V
B37: MTSP-1 protease domain Q38H/I41S/D60bT/F60eS/Y60gW/D96Y/F97R/ins97aD/T98G/F99L/C122S/G151H/Q175L/Q192D (enzyme)
chain: B27 chain with A26S, V47T, R50S, F91Y, Y92R, E93D, M95L, N146H, R189D
B38: MTSP-1 protease domain Q38H/I41S/D60bT/F60eS/Y60gW/D96F/F97S/ins97aD/T98G/F99L/C122S/G151H/Q175L/Q192D (enzyme)
chain: B27 chain with A26S, V47T, R50S, Y92S, E93D, M95L, N146H, R189D
B39: MTSP-1 protease domain Q38H/I41S/D60bT/F60eS/Y60gW/D96K/F97G/ins97aV/T98P/F99L/M117K/C122S/G151H/Q175L/Q192D (enzyme)
chain: VVGGTDADEGEWPWQVSLHALGHGHSCGASLISPNWLVSAAHCYIDTRGSRWSDPTQWTAFLGLHDQSQRSAPGVQERRLKRIISHPFFNKGVPLDYDIALLELEKPAEYSSKVRPISLPDASHVFPAGKAIWVTGWGHTQYGGTHALILQKGEIRVINQTTCENLLPQLITPRMMCVGFLSGGVDSCDGDSGGPLSSVEADGRIFQAGVVSWGDGCAQRNKPGVYTRLPLFRDWIKENTGV
B40: MTSP-1 protease domain L36Q/Q38H/I41S/D60bT/F60eS/Y60gW/D96K/F97G/ins97aV/T98P/F99L/C122S/G151H/Q175L/Q192D (enzyme)
chain: B39 chain with L21Q, K113M
B41: MTSP-1 protease domain Q38H/I41S/D60bT/F60eS/Y60gW/D96K/F97G/ins97aV/T98P/F99L/C122S/T150S/G151H/Q175L/Q192D/Q209L (enzyme)
chain: B39 chain with K113M, T145S, Q207L

target: plasma purified human complement protein C3 (human) (UniProt P01024); experiment: cell-based or functional assay
Sequence (P01024 23-667, chain 1 of 2): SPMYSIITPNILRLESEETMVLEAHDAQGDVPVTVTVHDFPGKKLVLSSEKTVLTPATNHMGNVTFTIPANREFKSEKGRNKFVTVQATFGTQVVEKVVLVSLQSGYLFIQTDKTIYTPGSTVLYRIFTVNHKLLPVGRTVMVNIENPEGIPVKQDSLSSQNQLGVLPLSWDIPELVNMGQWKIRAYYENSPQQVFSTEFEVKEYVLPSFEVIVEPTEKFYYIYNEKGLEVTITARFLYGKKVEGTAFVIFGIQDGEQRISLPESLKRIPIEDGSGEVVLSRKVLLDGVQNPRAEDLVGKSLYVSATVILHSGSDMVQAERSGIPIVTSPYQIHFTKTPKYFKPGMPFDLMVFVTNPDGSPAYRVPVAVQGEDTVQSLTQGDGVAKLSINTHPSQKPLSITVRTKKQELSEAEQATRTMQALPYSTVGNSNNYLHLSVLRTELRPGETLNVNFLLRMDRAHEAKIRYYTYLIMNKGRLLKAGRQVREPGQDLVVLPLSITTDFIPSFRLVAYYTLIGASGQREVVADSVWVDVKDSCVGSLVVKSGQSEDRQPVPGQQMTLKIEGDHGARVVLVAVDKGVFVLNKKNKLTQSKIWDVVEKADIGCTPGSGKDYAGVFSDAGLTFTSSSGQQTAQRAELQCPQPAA
Sequence (P01024 672-1663, chain 2 of 2): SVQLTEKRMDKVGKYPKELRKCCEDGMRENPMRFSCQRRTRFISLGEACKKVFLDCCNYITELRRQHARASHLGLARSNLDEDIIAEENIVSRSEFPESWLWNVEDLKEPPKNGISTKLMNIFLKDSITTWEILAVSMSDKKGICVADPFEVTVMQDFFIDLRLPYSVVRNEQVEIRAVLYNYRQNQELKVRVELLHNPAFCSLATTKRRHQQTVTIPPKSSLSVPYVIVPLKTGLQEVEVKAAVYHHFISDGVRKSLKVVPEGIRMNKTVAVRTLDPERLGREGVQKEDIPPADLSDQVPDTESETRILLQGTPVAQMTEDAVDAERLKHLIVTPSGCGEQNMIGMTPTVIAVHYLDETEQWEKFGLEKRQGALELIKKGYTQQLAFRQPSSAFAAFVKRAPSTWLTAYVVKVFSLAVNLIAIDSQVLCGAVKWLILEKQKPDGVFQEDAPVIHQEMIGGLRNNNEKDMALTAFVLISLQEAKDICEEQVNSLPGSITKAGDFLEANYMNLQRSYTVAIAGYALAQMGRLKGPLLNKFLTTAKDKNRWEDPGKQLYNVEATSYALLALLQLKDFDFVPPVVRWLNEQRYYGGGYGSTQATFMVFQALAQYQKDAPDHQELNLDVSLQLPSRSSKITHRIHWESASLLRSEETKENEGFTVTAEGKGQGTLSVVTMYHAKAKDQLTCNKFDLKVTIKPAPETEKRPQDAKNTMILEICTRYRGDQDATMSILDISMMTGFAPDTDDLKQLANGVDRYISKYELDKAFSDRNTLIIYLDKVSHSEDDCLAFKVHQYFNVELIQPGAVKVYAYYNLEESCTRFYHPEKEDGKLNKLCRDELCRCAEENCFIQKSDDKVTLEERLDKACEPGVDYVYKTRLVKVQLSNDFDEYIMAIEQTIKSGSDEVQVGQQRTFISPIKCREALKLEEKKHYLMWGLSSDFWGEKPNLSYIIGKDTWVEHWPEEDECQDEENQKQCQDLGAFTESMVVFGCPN

| Binder | EC50 hC3 cleavage [nM] | EC50 of hC3 cleavage [nM] |
| --- | --- | --- |
| B1 | 47.8 |  |
| B2 | 52.8 |  |
| B3 | 36.8 |  |
| B4 | 401 |  |
| B5 | 45.6 |  |
| B6 | 34 |  |
| B7 | 84.4 |  |
| B8 | 20.6 |  |
| B9 | 16.4 |  |
| B10 | 19.1 |  |
| B11 | 13.3 |  |
| B12 | 10.8 |  |
| B13 | 3.08 |  |
| B14 | 74.3 |  |
| B15 | 1.08 |  |
| B16 |  | 2.87 |
| B17 | 56.7 |  |
| B18 | 15.9 |  |
| B19 | 10.4 |  |
| B20 | 47.7 |  |
| B21 | 5.12 |  |

| Binder | EC50 hC3 cleavage [nM] | EC50 of hC3 cleavage [nM] |
| --- | --- | --- |
| B22 | 5.25 |  |
| B23 | 35.7 |  |
| B24 | 33.6 |  |
| B25 | 9.47 |  |
| B26 | 3.27 |  |
| B27 | 7.16 |  |
| B28 |  | 2.85 |
| B29 | 3.76 |  |
| B30 | 3.13 |  |
| B31 | 4.9 |  |
| B32 | 3.14 |  |
| B33 |  | 6.86 |
| B34 | 4.53 |  |
| B35 | 1.43 |  |
| B36 | 24.5 |  |
| B37 | 5.71 |  |
| B38 | 5.17 |  |
| B39 | 4.75 |  |
| B40 | 5.49 |  |
| B41 | 2.88 |  |
